Here are results for five compounds from article PMC6471467, “Comparing Gly^11/DAla^11-Replacement vs. the in-Situ Neprilysin-Inhibition Approach on the Tumor-targeting Efficacy of the ^111In-SB3/^111In-SB4 Radiotracer Pair” (Molecules, 2019).

Series [1] in a line: Biodistribution in SCID mice bearing PC-3 xenografts. The class given is in vivo. To be noted: female, mouse, pancreas, total radioactivity, average ± sd; for tissue uptake at 4 h: 4 h pi; for tissue uptake at 24 h: 24 h pi, n = 4, read-out: Pancreatic uptake, 24 h pi. The protocol:
A suspension containing freshly harvested human PC-3 cells (≈150 μL of a ≈1.2 × 10^7 cells) was subcutaneously injected in the flanks of female SCID mice (15 ± 3 g, six weeks of age at the day of arrival, NCSR “Demokritos” Animal House Facility).
Animals were euthanized at 4 and 24 h pi and dissected; samples of blood, tumors and organs of interest were collected, weighed and measured for radioactivity in the gamma counter. Intestines and stomach were not emptied of their contents. Data was calculated as percent injected dose per gram tissue (%ID/g) with the aid of standard solutions and represent mean values±sd, n = 4.

The nature of series [2]: In vivo stability in peripheral mouse blood (radio-HPLC). Also noted: species or system mice. The conditions noted are these: blood 5 min pi; for Intact radiotracer in mouse blood, representative radiochromatogram, PA-coinjection: coinjection of 300 µg phosphoramidon (PA), HPLC system 2, single representative sample (Figure 3c,d); for Intact radiotracer in mouse blood, representative radiochromatogram: without PA-coinjection, HPLC system 2, single representative sample (Figure 3a,b); for Intact radiotracer in peripheral mouse blood: healthy male Swiss albino mice, iv 3 nmol peptide, without PA, radio-HPLC, mean ± sd, n = 3. The protocol:
For stability experiments (approved protocol # 1609, Prefecture of Attica), healthy male Swiss albino mice (30 ± 5 g, NCSR “Demokritos” Animal House Facility) were used. The radioligand, ^111In-SB3 or ^111In-SB4, was injected as a 100 μL bolus (11–22 MBq, 3 nmol total peptide) in the tail vein together with injection solution (100 µL; control) or with a phosphoramidon (PA)-solution (100 µL injection solution containing 300 µg PA). Animals were euthanized and blood (0.5–1 mL) was directly withdrawn from the heart and transferred in a pre-chilled EDTA-containing Eppendorf tube on ice. Blood samples were centrifuged for 10 min at 2000 g/4 °C and plasma was collected. After addition of an equal volume of ice-cold MeCN the mixture was centrifuged for 10 min at 15,000 g/4 °C. The supernatant was concentrated under a N2-flux at 40 °C to 0.05-0.1 mL, diluted with saline (0.4 mL), filtered through a 0.22 μm Millex GV filter (Millipore, Milford, USA) and analyzed by RP-HPLC. The Symmetry Shield RP18 (5 μm, 3.9 mm × 20 mm) column was eluted at a flow rate of 1.0 mL/min with the following linear gradient (system 2): 0% B at 0 min to 10% B in 10 min and then in 40 min to 30% B; A = 20 mM ammonium acetate and B = MeCN. The tR of the intact radiopeptide was determined by coinjection with the ^111In-SB3 or ^111In-SB4 reference in the HPLC.

The next series deals with GRPR (Homo sapiens, UniProt P30550). Kind of series: biochemical.
Sequence of GRPR (P30550 whole entry): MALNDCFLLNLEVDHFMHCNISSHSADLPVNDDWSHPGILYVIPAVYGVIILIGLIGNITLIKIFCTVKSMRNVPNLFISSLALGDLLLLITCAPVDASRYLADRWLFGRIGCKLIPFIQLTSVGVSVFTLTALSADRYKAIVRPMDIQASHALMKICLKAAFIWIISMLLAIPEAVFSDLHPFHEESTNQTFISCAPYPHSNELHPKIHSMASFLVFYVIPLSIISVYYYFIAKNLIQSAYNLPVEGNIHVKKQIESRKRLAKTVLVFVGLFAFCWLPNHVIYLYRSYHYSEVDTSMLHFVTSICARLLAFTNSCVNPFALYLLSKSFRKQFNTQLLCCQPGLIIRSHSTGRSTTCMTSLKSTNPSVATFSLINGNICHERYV
The conditions of series [3]: small library of ^99mTc-labeled analogs with acyclic tetraamine chelator; cited from earlier work. The source says: Earlier work on the development of GRPR-antagonists generated a solid body of structure-activity relationships data, pinpointing at important factors for sustained in vivo action. […] Metabolic stability could be enhanced by suitable structural modifications, including DAla^11/Gly^11 in BBN-based or DAla^24/Gly^24 in GRP-based peptide ligands.

Setting [4] is: iv, with phosphoramidon (PA), 300 µg co-injected (NEP-inhibition), coinjection of 300 µg PA, n = 4, read-out: Pancreatic uptake, 4 h pi, PA-coinjection.
[5] abbreviates: iv 10 pmol peptide, control, n = 4, read-out: Pancreatic uptake, 4 h pi.

Where “and” joins values, the source holds several entries; their conditions need not be identical. Equal values may be shown once. Read-outs that look alike come from different tables or passages of the source. Peptide text beside a SMILES is read from it.

Method for GRPR: Human androgen-independent prostate adenocarcinoma PC-3 cells endogenously expressing the human GRPR (LGC Promochem, Teddington, UK) were used in the present study [24]. Cells were cultured in Roswell Park Memorial Institute (RPMI)-1640 medium, supplemented with 10% heat-inactivated fetal bovine serum (FBS), 100 U/mL penicillin and 100 µg/mL streptomycin, and kept in a controlled humidified atmosphere containing 5% CO2 at 37 °C. Passages were performed weekly using a trypsin/EDTA (0.05%/0.02% w/v) solution. All culture media were purchased from Gibco BRL, Life Technologies and supplements were provided by Biochrom KG Seromed.
For the assay, triplicates per concentration point (concentration range: 10^−13–10^−6 M) of each test peptide were incubated together with the radioligand (~40,000 cpm per assay tube, at a 50 pM concentration) in PC-3 cell-membrane homogenates in a total volume of 300 μL binding buffer (BB, 50 mM HEPES pH 7.4, 1% BSA, 5.5 mM MgCl2, 35 μM bacitracin) for 1 h at 22 °C in an Incubator-Orbital Shaker (MPM Instr. SrI, Italy). Binding was interrupted by ice-cold washing buffer (WB, 10 mM HEPES pH 7.4, 150 mM NaCl) and rapid filtration (Whatman GF/B filters presoaked in BB) on a Brandel Cell Harvester (Adi Hassel Ing. Büro, Munich, Germany). Filters were washed with ice-cold WB and counted in an automatic well-type gamma counter (NaI(Tl) 3´´-crystal, Cobra Packard Auto-Gamma 5000 series instrument). The half maximal inhibitory concentration (IC50) values were calculated using nonlinear regression according to a one-site model applying the PRISM 2 program (Graph Pad Software, San Diego, CA) and represent the mean±sd from three independent experiments performed in triplicate.

Consider `CCNC(=O)[C@H](CC(C)C)NC(=O)[C@H](Cc1c[nH]cn1)NC(=O)[C@@H](C)NC(=O)[C@@H](NC(=O)[C@H](C)NC(=O)[C@H](Cc1c[nH]c2ccccc12)NC(=O)[C@H](CCC(N)=O)NC(=O)[C@@H](Cc1ccccc1)NC(=O)COCC(=O)Nc1ccc(CNC(=O)CN2CCN(CC(=O)O)CCN(CC(=O)O)CCN(CC(=O)O)CC2)cc1)C(C)C` [^111In-SB4, metal not drawn] (HELM PEPTIDE1{[O=C(O)CN1CCN(CC(=O)O)CCN(CC(=O)NCc2ccc(NC(=O)COCC(=O)[*:2])cc2)CCN(CC(=O)O)CC1].[dF].Q.W.A.V.[dA].H.L.[CCN[*:1]]}$$$$V2.0), for which, in series [1] (setting [4]), the tissue uptake at 4 h worked out at 4.9 ± 0.7 %ID/g. Further, in series [1] (iv 10 pmol peptide), the tissue uptake at 24 h was determined as 0.1 %ID/g. In series [1] (setting [5]), the tissue uptake at 4 h stood at 1.6 ± 0.8 %ID/g. In addition, in series [2], the “Intact radiotracer in mouse blood, representative radiochromatogram, PA-coinjection” value is 99.7 % intact radiotracer; the “Intact radiotracer in mouse blood, representative radiochromatogram” value worked out at 77 % intact radiotracer; the “Intact radiotracer in peripheral mouse blood” value is 80 ± 3 % intact.

The IC50 is the concentration needed to halve the response being measured. For the compound `CCNC(=O)[C@H](CC(C)C)NC(=O)[C@H](Cc1c[nH]cn1)NC(=O)[C@@H](C)NC(=O)[C@@H](NC(=O)[C@H](C)NC(=O)[C@H](Cc1c[nH]c2ccccc12)NC(=O)[C@H](CCC(N)=O)NC(=O)[C@@H](Cc1ccccc1)NC(=O)COCC(=O)Nc1ccc(CNC(=O)CN2CCN(CC(=O)O)CCN(CC(=O)O)CCN(CC(=O)O)CC2)cc1)C(C)C` [SB4, DOTA-p-aminomethylaniline-diglycolic acid-DPhe-Gln-Trp-Ala-Val-DAla-His- Leu-NHEt] (HELM PEPTIDE1{[O=C(O)CN1CCN(CC(=O)O)CCN(CC(=O)NCc2ccc(NC(=O)COCC(=O)[*:2])cc2)CCN(CC(=O)O)CC1].[dF].Q.W.A.V.[dA].H.L.[CCN[*:1]]}$$$$V2.0), the IC50 on GRPR was 11.2 nM and 10.7 nM.

On to `CCNC(=O)[C@H](CC(C)C)NC(=O)[C@H](Cc1c[nH]cn1)NC(=O)CNC(=O)[C@@H](NC(=O)[C@H](C)NC(=O)[C@H](Cc1c[nH]c2ccccc12)NC(=O)[C@H](CCC(N)=O)NC(=O)[C@@H](Cc1ccccc1)NC(=O)COCC(=O)Nc1ccc(CNC(=O)CN2CCN(CC(=O)O)CCN(CC(=O)O)CCN(CC(=O)O)CC2)cc1)C(C)C` [^111In-SB3, metal not drawn], for which the tissue uptake at 4 h in series [1] (setting [4]) worked out at 33.1 ± 6.2 %ID/g. For the same compound, in series [1] (iv 10 pmol peptide), the tissue uptake at 24 h worked out at 0.6 ± 0.1 %ID/g. Also, in series [1] (setting [5]), the tissue uptake at 4 h amounted to 3.5 ± 0.4 %ID/g. In series [2], the “Intact radiotracer in mouse blood, representative radiochromatogram, PA-coinjection” value worked out at 98.9 % intact radiotracer; the “Intact radiotracer in mouse blood, representative radiochromatogram” value worked out at 55 % intact radiotracer; the “Intact radiotracer in peripheral mouse blood” value was found to be 56 ± 2 % intact.

Take “^99mTc-[N4-p-aminomethylaniline-diglycolic acid-DPhe^6,DAla^11,Leu^13-NHEt]BBN(6-13)”: the “Metabolic stability, rank within the library” value in series [3] was “highest metabolic stability”.

For `CCNC(=O)[C@H](CC(C)C)NC(=O)[C@H](Cc1c[nH]cn1)NC(=O)CNC(=O)[C@@H](NC(=O)[C@H](C)NC(=O)[C@H](Cc1c[nH]c2ccccc12)NC(=O)[C@H](CCC(N)=O)NC(=O)[C@@H](Cc1ccccc1)NC(=O)COCC(=O)Nc1ccc(CNC(=O)CN2CCN(CC(=O)O)CCN(CC(=O)O)CCN(CC(=O)O)CC2)cc1)C(C)C` [SB3], the IC50 against GRPR worked out at 4.6 ± 0.3 nM.
